Among the data in patent US20210309702A1 are 293ColorSwitch cells switched to GFP values, retold here.

Where two headings read alike, the source gives them in different places. Some results are limits rather than exact numbers.

Common to all, as to test: cell-based or functional assay
Experiment [1] has as its target VSV-G fused with GFP11 at its C terminus (VSV-G-GFP11) (Vesicular Stomatitis Virus (Indiana strain)) (UniProt P03522).
Experiment [2] shares this target. The source holds these as a separate data set.
Experiment [3] deals with superfolder GFP tagged VSV-G (VSV-G-sfGFP) (Vesicular Stomatitis Virus (Indiana strain)) (UniProt P03522).

For the substance “Cre recombinase fused with GFP1-10 (Cre-GFP1-10) (from UniProt P06956 1-343)”, the 293ColorSwitch cells switched to GFP in experiment [1] was over 80%; in experiment [2], 66.9%; in experiment [3], 2.6%.
